# In patent publication US20100124555A1, “Compositions and Methods for Treating Pancreatic Tumors” (UNIVERSITE DE LA MEDITERRANEE, priority 2007, published 2010):
# B1: 16D10: IgM monoclonal antibody recognizing FAPP/BSDL; producing cells deposited with the CNCM under the number I-3188 (antibody, listed as Mus musculus, V domains shown)
# VH: QVQLQQSDAELVKPGASVKISCKASGYTFTDHAIHWVKQKPEQGLEWIGYISPGNDVIKFNEKFKGKATLTADKSSSTAYMQLNSLTSEDSAVYFCKRSEGGVFDYWGQGTTLTVS
# VL: NIMMTQSPSSLAVSAGEKVTMSCKSSQSVLYSSNQKNFLAWYQQKPGQSPKLLIYWASTRESGVPDRFTGSGSGTDFTLTISSVQAEDLAVYYCHQYLSSYTFGGGTKLEIK
# Tested on: E-cadherin in PANC-1 cells
# Assay: Immunofluorescence of E-cadherin, PANC-1
# Assay type: cell-based, human
# Conditions: PANC-1 treated or not with mAb16D10
molecule,measurement,value
B1,E-cadherin at the plasma membrane,did not express E-cadherin at their plasma membrane
